The results in this text go back to PMC12756002 (2025).

The chains are these.
B1: Sis1-WT [yeast] / full-length Rnq1 [yeast] (parent complex)
chain 1: MVKETKLYDLLGVSPSANEQELKKGYRKAALKYHPDKPTGDTEKFKEISEAFEILNDPQKREIYDQYGLEAARSGGPSFGPGGPGGAGGAGGFPGGAGGFSGGHAFSNEDAFNIFSQFFGGSSPFGGADDSGFSFSSYPSGGGAGMGGMPGGMGGMHGGMGGMPGGFRSASSSPTYPEEETVQVNLPVSLEDLFVGKKKSFKIGRKGPHGASEKTQIDIQLKPGWKAGTKITYKNQGDYNPQTGRRKTLQFVIQEKSHPNFKRDGDDLIYTLPLSFKESLLGFSKTIQTIDGRTLPLSRVQPVQPSQTSTYPGQGMPTPKNPSQRGNLIVKYKVDYPISLNDAQKRAIDENF
chain 2: MDTDKLISEAESHFSQGNHAEAVAKLTSAAQSNPNDEQMSTIESLIQKIAGYVMDNRSGGSDASQDRAAGGGSSFMNTLMADSKGSSQTQLGKLALLATVMTHSSNKGSSNRGFDVGTVMSMLSGSGGGSQSMGASGLAALASQFFKSGNNSQGQGQGQGQGQGQGQGQGQGSFTALASLASSFMNSNNNNQQGQNQSSGGSSFGALASMASSFMHSNNNQNSNNSQQGYNQSYQNGNQNSQGYNNQQYQGGNGGYQQQQGQSGGAFSSLASMAQSYLGGGQTQSNQQQYNQQGQNNQQQYQQQGQNYQHQQQGQQQQQGHSSSFSALASMASSYLGNNSNSNSSYGGQQQANEYGRPQQNGQQQSNEYGRPQYGGNQNSNGQHESFNFSGNFSQQNNNGNQNRY
B2: Ssa1-WT [yeast] / Sis1-FLRnq1 complex (Sis1-WT premixed with denatured Rnq1) [yeast] (parent complex)
chain 1: not shown
chain 2: B1 chain 1
chain 3: B1 chain 2
B3: Sis1-WT [yeast] / Ssa1-WT [yeast] (parent complex)
chain 1: B1 chain 1
chain 2: not shown

Variants of B1 are the subject of one assay. The assay can be described thus: ELISA; 400 ng denatured FL Rnq1 immobilized; Sis1 at 20 nM; detection with Sis1-specific antibody; parent: 240; read off a plot.
For the variant chain 1 MVKETKLYDLLGVSPSANEQELKKGYRKAALKYHPDKPTGDTEKFKEIVEAFEILNDPQKREIYDQYGLEAARSGGPSFGPGGPGGAGGAGGFPGGAGGFSGGHAFSNEDAFNIFSQFFGGSSPFGGADDSGFSFSSYPSGGGAGMGGMPGGMGGMHGGMGGMPGGFRSASSSPTYPEEETVQVNLPVSLEDLFVGKKKSFKIGRKGPHGASEKTQIDIQLKPGWKAGTKITYKNQGDYNPQTGRRKTLQFVIQEKSHPNFKRDGDDLIYTLPLSFKESLLGFSKTIQTIDGRTLPLSRVQPVQPSQTSTYPGQGMPTPKNPSQRGNLIVKYKVDYPISLNDAQKRAIDENF [chain 1 S49V], the response was roughly 130 Abs 450nm. On the same count and under the same terms, the value for chain 1 MVKETKLYDLLGVSPSANEQELKKGYRKAALKYHPDKPTGDTEKFKEISEAFKILNDPQKREIYDQYGLEAARSGGPSFGPGGPGGAGGAGGFPGGAGGFSGGHAFSNEDAFNIFSQFFGGSSPFGGADDSGFSFSSYPSGGGAGMGGMPGGMGGMHGGMGGMPGGFRSASSSPTYPEEETVQVNLPVSLEDLFVGKKKSFKIGRKGPHGASEKTQIDIQLKPGWKAGTKITYKNQGDYNPQTGRRKTLQFVIQEKSHPNFKRDGDDLIYTLPLSFKESLLGFSKTIQTIDGRTLPLSRVQPVQPSQTSTYPGQGMPTPKNPSQRGNLIVKYKVDYPISLNDAQKRAIDENF [chain 1 E53K] was roughly 140 Abs 450nm; that for chain 1 MVKETKLYDLLGVSPSANEQELKKGYRKAALKYHPDKPTGDTEKFKEISEAFAILNDPQKREIYDQYGLEAARSGGPSFGPGGPGGAGGAGGFPGGAGGFSGGHAFSNEDAFNIFSQFFGGSSPFGGADDSGFSFSSYPSGGGAGMGGMPGGMGGMHGGMGGMPGGFRSASSSPTYPEEETVQVNLPVSLEDLFVGKKKSFKIGRKGPHGASEKTQIDIQLKPGWKAGTKITYKNQGDYNPQTGRRKTLQFVIQEKSHPNFKRDGDDLIYTLPLSFKESLLGFSKTIQTIDGRTLPLSRVQPVQPSQTSTYPGQGMPTPKNPSQRGNLIVKYKVDYPISLNDAQKRAIDENF [chain 1 E53A] was roughly 79 Abs 450nm. Consider chain 1 MVKETKLYDLLGVSPSANEQELKKGYRKAALKYHPDKPTGDTEKFKEISEAFEILLDPQKREIYDQYGLEAARSGGPSFGPGGPGGAGGAGGFPGGAGGFSGGHAFSNEDAFNIFSQFFGGSSPFGGADDSGFSFSSYPSGGGAGMGGMPGGMGGMHGGMGGMPGGFRSASSSPTYPEEETVQVNLPVSLEDLFVGKKKSFKIGRKGPHGASEKTQIDIQLKPGWKAGTKITYKNQGDYNPQTGRRKTLQFVIQEKSHPNFKRDGDDLIYTLPLSFKESLLGFSKTIQTIDGRTLPLSRVQPVQPSQTSTYPGQGMPTPKNPSQRGNLIVKYKVDYPISLNDAQKRAIDENF [chain 1 N56L], for which the response is roughly 60 Abs 450nm.

In a further assay the parent is B2. The assay can be described thus: ELISA; Denatured Rnq1 premixed with Sis1 and immobilized; Ssa1-WT at 20 nM; detection with αSsa1 antibody; parent: 230; read off a plot.
As to chain 2 E53K, the response was roughly 110 Abs 450nm. On to chain 2 E53A, for which the response is roughly 120 Abs 450nm. chain 2 N56L: the response was roughly 89 Abs 450nm. Regarding chain 2 S49V, the response is roughly 170 Abs 450nm.

Variants of B3 are the subject of another assay. The assay can be described thus: ELISA; Ssa1 (200 nM) immobilized; Sis1 at 20 nM; detection with αSis1 antibody; parent: 130; read off a plot.
Regarding chain 1 S49V, the response is roughly 82 Abs 450nm. Same read-out and setting: the same measure for chain 1 N56L: roughly 75 Abs 450nm. As for chain 1 E53K, the response was roughly 97 Abs 450nm.

For the variant chain 1 E53A, the response is roughly 78 Abs 450nm.
